Data on one molecule can be found in patent publication US20240110201A1 (SPARK THERAPEUTICS, published 2024).

The target of the experiment is T1, C1-esterase (reagent of the Technochrom C1-INH kit, Diapharma 5345003) (human, UniProt P09871 16-688, limits assumed).
T1 sequence (looked up): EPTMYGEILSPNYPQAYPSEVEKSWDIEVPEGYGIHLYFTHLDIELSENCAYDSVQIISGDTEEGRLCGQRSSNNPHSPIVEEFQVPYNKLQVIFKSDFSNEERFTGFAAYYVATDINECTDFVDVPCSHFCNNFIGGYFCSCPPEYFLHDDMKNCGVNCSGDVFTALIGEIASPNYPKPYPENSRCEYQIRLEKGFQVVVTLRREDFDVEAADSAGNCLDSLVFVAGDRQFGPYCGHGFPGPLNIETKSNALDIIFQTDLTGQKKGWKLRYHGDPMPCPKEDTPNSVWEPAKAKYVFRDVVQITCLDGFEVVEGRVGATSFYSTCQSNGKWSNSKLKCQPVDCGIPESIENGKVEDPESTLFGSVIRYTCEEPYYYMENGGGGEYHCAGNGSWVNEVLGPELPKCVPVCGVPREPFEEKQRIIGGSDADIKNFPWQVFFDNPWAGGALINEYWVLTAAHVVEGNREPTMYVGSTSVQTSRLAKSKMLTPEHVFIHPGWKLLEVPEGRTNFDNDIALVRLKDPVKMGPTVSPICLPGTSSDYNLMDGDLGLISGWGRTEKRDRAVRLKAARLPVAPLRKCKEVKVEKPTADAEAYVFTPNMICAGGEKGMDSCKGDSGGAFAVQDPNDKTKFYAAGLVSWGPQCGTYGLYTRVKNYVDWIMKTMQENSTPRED
In words: cell-based or functional assay.

B1: human C1 inhibitor (transgene product secreted into plasma after administration of AAV-encapsidated SERPING1 expression cassettes) (other)
chain: NPNATSSSSQDPESLQDRGEGKVATTVISKMLFVEPILEVSSLPTTNSTTNSATKITANTTDEPTTQPTTEPTTQPTIQPTQPTTQLPTDSPTQPTTGSFCPGPVTLCSDLESHSTEAVLGDALVDFSLKLYHAFSAMKKVETNMAFSPFSIASLLTQVLLGAGENTKTNLESILSYPKDFTCVHQALKGFTTKGVTSVSQIFHSPDLAIRDTFVNASRTLYSSSPRVLSNNSDANLELINTWVAKNTNNKISRLLDSLPSDTRLVLLNAIYLSAKWKTTFDPKKTRMEPFHFKNSVIKVPMMNSKKYPVAHFIDQTLKAKVGQLQLSHNLSLVILVPQNLKHRLEDMEQALSPSVFKAIMEKLEMSKFQPTLLTLPRIKVTTSQDMLSIMEKLEFFDFSYDLNLCGLTEDPDLQVSAMQHQTVLELTETGVEAAAASAISVARTLLVFEVQQPFLFVLWDQQHKFPVFMGRVYDPRA
For B1, the “C1-INH activity, chromogenic assay of residual C1-esterase activity, reported as percentage of activity relative to a coagulation reference standard” value worked out at 766 % activity.
